Measured values taken from the DeepSol protein solubility set.

Assay: soluble on expression in E. coli; label from the status in PepcDB or PDB records

| Sequence | soluble on expression in E. coli |
| --- | --- |
| MHILVTGFAPFDNQNINPSWEAVTQLEDIIGTHTIDKLKLPTSFKKVDNIINKTLASNHYDVVLAIGQAGGRNAITPERVAINIDDARIPDNDDFQPIDQAIHLDGAPAYFSNLPVKAMTQSIINQGLPGALSNSAGTFVCNHTLYHLGYLQDKHYPHLRFGFIHVPYIPEQVIGKPDTPSMPLEKIVAGLTAAIEAISNDEDLHLALGTTE | not soluble |
| MGSDKIHHHHHHMVVALQYRTDLLEIHRFTRFESSLAHLGFRHFQPLASLRPWVHRYFHLQVATNLPQSIEQTFYPDGGTSLQFYFPAPSLNTNSDEPKVVFHCGQSLHSHAFVPGIEQMIVRFHPGGAFHLLGIAVQEIQQTSSHTVIEATQLHLPGLNQLLSQLADTNQPMQRIAQLEQWLLQLIKPQLDRGTWSTAGIVQMSLPRLIQPQTRLENFYGQLALSRRQFERRFKQETGLSPAQLQQLNRVKIARDLLSQSPELNLAQVAFDCGFYDQAHLHQHFVRVTQQTPGQYKKRKMSQISNLTQR | not soluble |
| MTSIAISSGSFDPITLGHLDIIKRGAKVFDEVYVVVLNNSSKKPFFSVEERLDLIREATKDIPNVKVDSHSGLLVEYAKMRNANAILRGLRAVSDFEYEMQITSMNRKLDENIETFFIMTNNQYSFLSSSIVKEVARYGGSVVDLVPPVVERALKEKFQTPLK | not soluble |
| MKLLEVHILQTVAPSNLNRDDTGSPKDALFGGFRRARISSQAQKRAVRVAFRDWPLLSEEERAVRTKRLVEELLRRLAGVEEELARRAIENALNALGFGVKEGRTEYLLFLGNRELDALAQGIRENLEALSGEVKGKKKAEVPPELKKALERVLDGGKAVDLALFGRMLADRPELGVDAAAQVAHALSTHKVDREFDFYTAVDDLNPKEDTGAGMMGDVEFYSATLYRYAVVDLDKLVENLQGDKELALKGVLAFLEAFALTLPSGKQNSFAAHNPPLFVAFRAGEGMPRNLATAFEAPLRPKEEVPLSRLSAEALLKEWAKFDRVYGPLEPEWKGALDLTGAEGDGVPRLENLKALKEKAAEAVKALLGV | soluble |
| MLRIDCGGQDTVTKIVAERLMMKTDGRLARMLHVLVHMGLLGGRETSERIAQMLNTNPVVVRRTLGALRESGIVVSEGGRGGGWKLIRSLDQITVLDVQRALVEGQMLPAPLSKDHPNCPVERASNAVLERAHCLAEAALRTAYSETTLAQIAETAVATK | not soluble |
| MTKIFAKEWNMSDPGRALASFFATLPTRPQLLALGEPNHTDDAFPAQRNRLFRTLVEEYGFRSIALESDILAGQRVNAYVTGGADDLEEVMRTGFSHDFGRRAANRELVGWLRDFNAGRSADEQVHFYGFDPPMENLWAASPRASLLTLHALLARQVPALPVSAATIERLCGDDARWANPAAGMDAAQSIGHSDEARQLRVLTDDLLHRLETGAPGLAEQPDFWEAQLAARTAAGLLRYHAVMADPAPDRIARMLAARDLLMAGHLLAIAEREQRCGPTLVFAHNLHLQRPLSRMKMGAQKIGAQTLDWWGAGAHVSRRLGERYAFIASYPGAAEETFLVPSSELTEAAATQLSVRDDGQPYSFPFKLSDLPFLNGALLVGQFLEHHHHHH | soluble |
| MSLSCWKPLSKEEFEAIVSKYKDNPKIEIDYENLKFIPKFNEQIKKYYSNKIKGAKVENLVNEVYEAWFDYIIRIYERPKEKDILMFLPCAAKKPYYKSKTHRTIQRAISGFQIFNRIHRVIVSNPGIIPWEFHTYWPFNSYDWPEWEETEDIKKLYYWVTYKRVKEFLRRHQYNYYTVYMKPDSLTYKAVMDASKELNIKIIPLLDEKTYEKCKGQGNPLVKEPCIESLKNNLKQLQKQIYEGSNSEGHHHHHH | soluble |
| MAHHHHHHMGLEDIDVDDPPLTTSATPQTQKQCSSTLPNPPVTNVVKGASAPVDLVDLFGDLNVSTATPVVVTAATVGAATNSKNQAHYAGNTADDDFEWVTAKPSVAPPLAPKSYQGNAGTSNDPLDSFFSQAVPTPAATETAKPPDSSNDLFDFSEPVERVKYTNENTLLEAFANQGKANQGGGSKGPTLADLSKGSSDNVVKARLLKLMNYYDVLGVTPDATEAVIRQRFKKKALELHPDRVGRDQTPEEVELFKVMTKAHEVLTDPEERAKYDAQLLGGVPSGSPDSDWFFPPS | soluble |
| MTKYIFVTGGVVSSLGKGITAASLGRLLKNRGLNVTIQKFDPYINVDPGTMSPYQHGEVFVTDDGAETDLDLGHYERFIDINLNKYSNVTTGKIYSAVIRKERRGDYLGGTVQVIPHITNEIKERVFRAGRETNADVVITEIGGTVGDIESLPFLEAIRQIKSDVGRENVMYIHCTLVPYIKAAGEMKTKPTQHSVKELRSLGIQPNVIVVRTEMPMPQEMKEKIALFCDIDPKAVIEARDADTLYAVPLMLQEQKLDQIVCEHLRLNCREADMTEWKALVEKVRNLSKTTKIALVGKYVELPDAYISVVEALRHAGYAFDTDIDIQWINAEHVTRDNVADLLKDADGILVPGGFGDRGVEGKIEAIRYAREQRVPFLGICLGMQLASIEFARHVVGLSGAHSSEFDPNTPHPIIDLLPEQKDVEDLGGTLRLGLYPCKLQEGTLAYAAYGDEVIYERHRHRYEFNNQYRSIMEEHGFVFSGTSPDGRLVEVIELKDHPWFVAAQFHPEFTSRPTRPQPLFREFVRASLKE | not soluble |
| MSLGAFLDKPKTEKHNAHGAGNGLRYGLSSMQGWRVEMEDAHTAVVGIPHGLEDWSFFAVYDGHAGSRVANYCSTHLLEHITTNEDFRAAGKSGSALELSVENVKNGIRTGFLKIDEYMRNFSDLRNGMDRSGSTAVGVMISPKHIYFINCGDSRAVLYRNGQVCFSTQDHKPCNPREKERIQNAGGSVMIQRVNGSLAVSRALGDYDYKCVDGKGPTEQLVSPEPEVYEILRAEEDEFIILACDGIWDVMSNEELCEYVKSRLEVSDDLENVCNWVVDTCLHKGSRDNMSIVLVCFSNAPKVSDEAVKKDSELDKHLESRVEEIMEKSGEEGMPDLAHVMRILSAENIPNLPPGGGLAGKRNVIEAVYSRLNPHRESDGGAGDLEDEGHHHHHH | soluble |
| MIVCMSVSLLRSYAVRRALGALVVAGFLGAGVTGCSNDAGAKTENTVDGSPTPVSTPTDGEGDGAGEPVEETPAEPEQRPTPVEPEAMKTGDKAGAIAAAQYFVEVIEYSMHTSTTDLLEKYSYEHCDRCAHFVEVINTRQEKNVLPKSVVINSSQEGHPEFRGEGAIIWRVPMRLQISEQWETGKEPRKEDVKVSISVANENGRWVLVGIVAED | not soluble |
| MVTILDRTSSDEKRIRHPEKAHRPDTEVMRKPEWIRVKAPTSKGYHETRELVRSHKLVTVCEEAGCPNIGECWEKKHATFMIMGEICTRACAFCNVATGKPNALDMDEPENVAKAVKQMGLSHVVITSVDRDDLADGGAEHFEKVIWAIRAASPTTTIEILTPDFLKKPGALERVVAAKPDVFNHNMETVPGNYLTVRPGARYFHSVRLLQRVKELDPTMFTKSGIMVGLGEERNEVLQLMDDLRSADVDFLTIGQYLQPTRKHHKVEAFVTPEEFKSYETVAYAKGFLMVSSSPLTRSSHHAGDDFERLRAAREKKLLAAAE | not soluble |
| EQPKCNVRVVEMTYTTVGVVGEATRASGVVLVPDGPQCPGPYPVLGWGRDGQTFRRSEQAKSIISAKGDDPLVTRLASQGYVVVGTDYLGLGGSNYPYHPYLHANSEASALIDALRASRTVLQHLNTPLSNKLMLSGFSQGGHTAMATQREIEAHLSNE | not soluble |
| MGSDKIHHHHHHMSQFIDILRQHLADFQWRYAHQITPEIQDAIHAMLSCRCNTARVSCCEQQREFPLSCGHRSCPQCQHGTTCDWLSKQQAKLLPVNYFMVTFTLPFELRAIAKSQPDLLYHALFTVAASVLKDFAVRSPKLSGDIGFTGVLHTYSRRRDYHPHLHCIIPAGSYHPGKRQWRKCQTHYLFNAFNLAKVWRARLLTYLSDRLQLKLPH | not soluble |
| MGSDKIHHHHHHMHTELNHVMPWRIEDIDLTRIDRQKAVANEDLLLLLCASSFIESGSDLYTANLSTFFNGDPEVSAWLNQEWEPEELQHGRALKTYIAYVWPEFDWDTAFRNFMEEYSLTCSVEDFEKTRALEMVARCVVETGTATLYRAIGECSDEPVLKQITDNIRTDEVRHYKHFFKYFKKYNKIEGNGRLAVLGALMRRVMEIKNEDSEIALRHVFAVRYPERVHDSAYNRERAARINALVRRNLSADMCVKMLLKPLDLPARIQPGVHYPLAKITQHVFFR | not soluble |
| MKLEFNLIIAGVGGQGGLTLSRIIGNAAMIEGYRVRIGETLGMSQRYGSVLSYLRFGEEVYSPLIEEGKADLMLALEPVEALRNARFLSRKSYAIINAYPIHTATTLVGKERYPDLEEIKEAIGKICRVEMRNFQEEADKINPRTLGVLMTGFAWRKGLLPLKKESIIEGIKLTLREKLWDINFRAFERGVELASL | soluble |
| MAHHHHHHMHTNTMEVVVKHMGAAFSVAVIPVLKDNYTYIIHDKTTNTMAAVDVSADTTPIVDYVERIRRSIDERGAGAMSFSTIFSTHKHWDHAGGNVVLPKALKAAGAFRIIGGVNDNISGVTQTVREGDRLSLGALQVEVLEAPCHTRGHVLYKVYHPQAEKDGVALFTGDTMFVGGIGAFFEGDAAHMCRALRKVYNLHHNATDKEEADRRTFVFPGHEYTVNFLQFARDTIPPAHPDATFIASQLERYKESVAQRKPTVPSTLAEEKRQNLFLRTCDESFVREMKHGDTAETLMQHLYDTCP | not soluble |
| MAHHHHHHMNRENLEELKILNLKNDKQPIYNFRCKHCNYVLFNDNEIIKHDFKISKIKKNYGNSCTSIFIEKKEWILTENKMKGVLNCPNCNIKLGKWSWTGICCSCGYLQIPAFMINSSNVDRMNISKTV | soluble |
| MSHDVKELIEGLNEDLAGEYSAIIMYNHNAATVSGIYRQVLKPFFESEISDEQGHALYLAEKIKTLGGTPTTIPLRVKQAEDVREMLEYARQSEYETIKRYEKRKEQAANLNMTELVVKLEDMIADETNHMEELDRLLNDKAMVLN | soluble |
| MGSDKIHHHHHHMSERPTLHVVSLSGGKDSTATLCVALEQHGSENVRAVMADTGNEDEQNLEYALDYLPRALGIPVDVVRADFTDEFATKRANLARIAAGEPESAVYGKREFMYRWTPEAAARALEVLHPTGIPFLDLCLVRGGFPSRKRQFCTQYLKTEQLVGYALREIDRGYAVWSWQGVRIDESDSRRERLQGTGACVKAFEVVGGGLFNYRPILRWSAADVFEAHAAAGIRPNPLYRQGMSRVGCMPCINAGKLELREIARRFPEHVERIAEWERLVSEVCRPGSPVSFFHQGTTGHTGQASTIWKVVDWSKTSRGGRQYDLLADAEPATACSSAYGLCE | not soluble |
| MSLPNCLQCQSEYVYEDGLLLICPMCAFEWTPGEEATEEEGLVVLDSNGVRLSDGDTITVVKDLKVKGAPKDLKQGTRVKNIRLVEGDHNIDCKIDGFGAMKLKSEFVKKI | not soluble |
| MIILDNSIQTKKRTDSLSKLITVNTLGPEGTSSEYAAKHFISNFTLLQGLNSKLSLHDTFESCIERTLQSPLEYTIVPHAYDGIKHFYMRPDLQLLQIFRCDTPMYGLAVRPDFEFRDDMLDTSVIVSHPSPINLIKYFTRKDVRFKLVNSTSQAARKVKEGLYDIALTNELARQKYGLTFVKTFKSIPMSWSLFGKGDVDDENLEHHHHHH | not soluble |
| MTILSVSPNKREDLSMKRKIALAMVLAMTASMAQPVLAADSKTTLDVIISQYGTQTQTWWTQFEKDFEAENPDIDLNVEIVSWNDLYTKVNTLVANNNAPDILNIDVLADYVADDLLMPATEYASEDLQAKFFPAFWEASTIDDTVYALPILASCRALFYNKDILDEAGATVPTTWAEVQETAQKIKDKFGDDVYPWGIDMTTDEGQAAFSYYTWNNGGGFVDENGDWALNSDKNVEALNFAIGLVNDGYTNSDPANETRYDLQDMFGAGKVAMMIGPNNIPTYLSDGGYDINYDVTTIPANEGCDSVAMGVCDRLEVFKDDSAEDQEARTAAISKFFDFFYDDERYADYMVFEGFLPTTQTAADLLAKDDDTFASWIDILQSCNFYPATKTEWADVKQGVIEVEQNALLGDDVQTLLDDLQADIAG | not soluble |
